Series [1] in a line: Degradation of sulfometuron-methyl by purified herbicide tolerant proteins (enzymatic activity, HPLC). Type of series: biochemical. Conditions: 0.2 μg enzyme, 0.2 mM substrate, pH 7.0, 30° C., 20 min. Here is the method: (§1) Each reaction was timed beginning with the addition of reactive enzyme, and was terminated with 1 mL of dichloromethane. The organic phase after delamination was dehydrated with anhydrous sodium sulfate.
(§2) The above dehydrated reaction solution was blown dry with nitrogen and filtered by adding 1 mL of methanol, and 20 μL of the filtrate was subjected to liquid chromatography-mass spectrometry (LC-MS). High performance liquid chromatography (HPLC) conditions were as follows: mobile phase being methanol:water (80:20, V/V), Zorbax XDB-C18 chromatographic column (3.5 μm, 2.1×50 mm, Agilent, USA), column temperature being room temperature, UV detector, with a detection wavelength of 255 nm, a sample injection volume of 20 μL, and a flow rate of 0.25 mL/min. The primary ion mass spectrometry conditions were as follows: ion detection mode being multi-reactive ion detection; ion polarity being negative ion; ionization mode being electrospray ionization; a capillary voltage of 4000 volts; a dry gas temperature of 330° C., a flow rate of 10 L/min, an atomizing gas pressure of 35 psi, a collision voltage of 135 volts; and a mass scan range of 300-500 m/z. The secondary ion mass spectrometry conditions were as follows: a collision voltage of 90 volts; a mass scanning range of 30-400 m/z, and other conditions being the same as those of the primary ion mass spectrometry. It was identified by LC-MS that the metabolite of thifensulfuron-methyl was thiophene sulfonic acid, and the metabolite of metsulfuron-methyl, chlorimuron-ethyl, bensulfuron-methyl, sulfometuron-methyl or tribenuron-methyl was its corresponding sulfonic acid. The amount of the generated thiophene sulfonic acid (metabolite) was detected using high performance liquid chromatography (HPLC).

Series [2] is classed as biochemical. The following applies: for specific enzyme activity, bensulfuron-methyl / specific enzyme activity, chlorimuron-ethyl / specific enzyme activity, metsulfuron-methyl / specific enzyme activity, thifensulfuron-methyl / specific enzyme activity, tribenuron-methyl: 0.2 μg enzyme, 0.2 mM substrate, pH 7.0, 30° C., 20 min. Here is the method:
as §1, §2

B1: ALT02M1: herbicide tolerant protein, SEQ ID NO: 23; ALT02 with glycine to alanine at position 140 (protein)
chain: METDNVELAQSKRKVVLAEQGSFYIGGRTVTGPGKFDPSKPVIPYSNEGATFYINQMYVNFQAPVRPRGLPLVFWHGGGLTGHIWESTPDGRPGFQTLFVQDRHTVYTIDQPGRGRGNIPTFNGPFGQLEEESIVNTVTANSSKEGAWVRDRLGPAPGQFFENSQFPRGYEDNYFKEMGFSPSISSDEIVDAVVKLVTHIGPCVLVTHSASGVLGMRVATHAKNVRGIVAYEPATSIFPKGKVPEIPPLADKKSQIFPPFEIQESYFKKLAKIPIQFVFGDNIPKNPKSAYWFLDWWRVTRYAHSLSLEAINKLGGQASLLDLPTAGLRGNTHFPFTDRNNVQVASLLSDFLGKHGLDQNESKLAAALE
modifications: the amino acid sequence of ALT02M1
As to B1, in series [1], the “specific enzyme activity, sulfometuron-methyl” value amounted to 5.7 µmol/min/mg. Besides, in series [2], the “efficiency of degrading bensulfuron-methyl, fold of ALT02” value is 2.3 fold; the “efficiency of degrading thifensulfuron-methyl, fold of ALT02” value was 3.3 fold; the “specific enzyme activity, bensulfuron-methyl” value worked out at 4.1 µmol/min/mg; the “specific enzyme activity, chlorimuron-ethyl” value was found to be 10.9 µmol/min/mg. Further, in series [2], the “specific enzyme activity, metsulfuron-methyl” value was 2.3 µmol/min/mg; the “specific enzyme activity, thifensulfuron-methyl” value was 94.4 µmol/min/mg; the “specific enzyme activity, tribenuron-methyl” value was 3.3 µmol/min/mg.

B2: ALT02M3: herbicide tolerant protein, SEQ ID NO: 31; ALT02 mutated at positions 44, 45, 140, 142 and 146 (protein)
chain: METDNVELAQSKRKVVLAEQGSFYIGGRTVTGPGKFDPSKPVIRASNEGATFYINQMYVNFQAPVRPRGLPLVFWHGGGLTGHIWESTPDGRPGFQTLFVQDRHTVYTIDQPGRGRGNIPTFNGPFGQLEEESIVNTVTANVSKERAWVRDRLGPAPGQFFENSQFPRGYEDNYFKEMGFSPSISSDEIVDAVVKLVTHIGPCVLVTHSASGVLGMRVATHAKNVRGIVAYEPATSIFPKGKVPEIPPLADKKSQIFPPFEIQESYFKKLAKIPIQFVFGDNIPKNPKSAYWFLDWWRVTRYAHSLSLEAINKLGGQASLLDLPTAGLRGNTHFPFTDRNNVQVASLLSDFLGKHGLDQNESKLAAALE
modifications: the amino acid sequence of the ALT02M3
As for B2, in series [1], the “specific enzyme activity, sulfometuron-methyl” value is 1.2 µmol/min/mg. Also, in series [2], the “efficiency of degrading chlorimuron-ethyl, fold of ALT02” value was 14.2 fold; the “efficiency of degrading metsulfuron-methyl, fold of ALT02” value turned out to be 2.1 fold; the “specific enzyme activity, bensulfuron-methyl” value stood at 0.7 µmol/min/mg; the “specific enzyme activity, chlorimuron-ethyl” value turned out to be 40.3 µmol/min/mg. In series [2], the “specific enzyme activity, metsulfuron-methyl” value stood at 4.4 µmol/min/mg; the “specific enzyme activity, thifensulfuron-methyl” value is 18.7 µmol/min/mg; the “specific enzyme activity, tribenuron-methyl” value was found to be 3.5 µmol/min/mg.

B3: ALT02M2: herbicide tolerant protein, SEQ ID NO: 27; ALT02 with serine to valine at position 142 (protein)
chain: METDNVELAQSKRKVVLAEQGSFYIGGRTVTGPGKFDPSKPVIPYSNEGATFYINQMYVNFQAPVRPRGLPLVFWHGGGLTGHIWESTPDGRPGFQTLFVQDRHTVYTIDQPGRGRGNIPTFNGPFGQLEEESIVNTVTGNVSKEGAWVRDRLGPAPGQFFENSQFPRGYEDNYFKEMGFSPSISSDEIVDAVVKLVTHIGPCVLVTHSASGVLGMRVATHAKNVRGIVAYEPATSIFPKGKVPEIPPLADKKSQIFPPFEIQESYFKKLAKIPIQFVFGDNIPKNPKSAYWFLDWWRVTRYAHSLSLEAINKLGGQASLLDLPTAGLRGNTHFPFTDRNNVQVASLLSDFLGKHGLDQNESKLAAALE
modifications: the amino acid sequence of the ALT02M2
For B3, the “specific enzyme activity, sulfometuron-methyl” value in series [1] is 3.7 µmol/min/mg. In addition, in series [2], the “efficiency of degrading bensulfuron-methyl, fold of ALT02” value was 1.4 fold; the “efficiency of degrading thifensulfuron-methyl, fold of ALT02” value is reported as 3.9 fold; the “specific enzyme activity, bensulfuron-methyl” value amounted to 2.5 µmol/min/mg; the “specific enzyme activity, chlorimuron-ethyl” value came to 9.5 µmol/min/mg. In series [2], the “specific enzyme activity, metsulfuron-methyl” value turned out to be 1.3 µmol/min/mg; the “specific enzyme activity, thifensulfuron-methyl” value amounted to 111.3 µmol/min/mg; the “specific enzyme activity, tribenuron-methyl” value stood at 11.3 µmol/min/mg.

B4: ALT01M1: herbicide tolerant protein, SEQ ID NO: 7; ALT01 with glycine to alanine at position 176 (protein)
chain: METDKKTGTSRRSFVKAAGTGAIGIATLPLSTATAFAETDNVELAQSKRKVVLAEQGSFYIGGRTVTGPGKFDPSKPVIPYSNEGATFYINQMYVNFQAPVRPRGLPLVFWHGGGLTGHIWESTPDGRPGFQTLFVQDRHTVYTIDQPGRGRGNIPTFNGPFGQLEEESIVNTVTANSSKEGAWVRDRLGPAPGQFFENSQFPRGYEDNYFKEMGFSPSISSDEIVDAVVKLVTHIGPCVLVTHSASGVLGMRVATHAKNVRGIVAYEPATSIFPKGKVPEIPPLADKKSQIFPPFEIQESYFKKLAKIPIQFVFGDNIPKNPKSAYWFLDWWRVTRYAHSLSLEAINKLGGQASLLDLPTAGLRGNTHFPFTDRNNVQVASLLSDFLGKHGLDQNES
modifications: the amino acid sequence of the herbicide tolerant protein ALT01M1
For the molecule B4, the “specific enzyme activity, sulfometuron-methyl” value in series [1] is 5.4 µmol/min/mg. Further, in series [2], the “efficiency of degrading bensulfuron-methyl, fold of ALT01” value is listed as 2.3 fold; the “efficiency of degrading thifensulfuron-methyl, fold of ALT01” value is listed as 3.3 fold; the “specific enzyme activity, bensulfuron-methyl” value is 3.9 µmol/min/mg; the “specific enzyme activity, chlorimuron-ethyl” value came out at 10.4 µmol/min/mg. In series [2], the “specific enzyme activity, metsulfuron-methyl” value turned out to be 2.2 µmol/min/mg; the “specific enzyme activity, thifensulfuron-methyl” value worked out at 89.9 µmol/min/mg; the “specific enzyme activity, tribenuron-methyl” value came out at 3.1 µmol/min/mg.

B5: ALT01M2: herbicide tolerant protein, SEQ ID NO: 11; ALT01 with serine to valine at position 178 (protein)
chain: METDKKTGTSRRSFVKAAGTGAIGIATLPLSTATAFAETDNVELAQSKRKVVLAEQGSFYIGGRTVTGPGKFDPSKPVIPYSNEGATFYINQMYVNFQAPVRPRGLPLVFWHGGGLTGHIWESTPDGRPGFQTLFVQDRHTVYTIDQPGRGRGNIPTFNGPFGQLEEESIVNTVTGNVSKEGAWVRDRLGPAPGQFFENSQFPRGYEDNYFKEMGFSPSISSDEIVDAVVKLVTHIGPCVLVTHSASGVLGMRVATHAKNVRGIVAYEPATSIFPKGKVPEIPPLADKKSQIFPPFEIQESYFKKLAKIPIQFVFGDNIPKNPKSAYWFLDWWRVTRYAHSLSLEAINKLGGQASLLDLPTAGLRGNTHFPFTDRNNVQVASLLSDFLGKHGLDQNES
modifications: the amino acid sequence of the herbicide tolerant protein ALT01M2
With B5, the “specific enzyme activity, sulfometuron-methyl” value in series [1] worked out at 3.5 µmol/min/mg. Further, in series [2], the “efficiency of degrading bensulfuron-methyl, fold of ALT01” value is given as 1.4 fold; the “efficiency of degrading thifensulfuron-methyl, fold of ALT01” value stood at 3.9 fold; the “specific enzyme activity, bensulfuron-methyl” value turned out to be 2.4 µmol/min/mg; the “specific enzyme activity, chlorimuron-ethyl” value is 9.0 µmol/min/mg. In series [2], the “specific enzyme activity, metsulfuron-methyl” value came to 1.2 µmol/min/mg; the “specific enzyme activity, thifensulfuron-methyl” value worked out at 106.0 µmol/min/mg; the “specific enzyme activity, tribenuron-methyl” value came to 10.8 µmol/min/mg.

B6: ALT01M3: herbicide tolerant protein, SEQ ID NO: 15; ALT01 mutated at positions 80, 81, 176, 178 and 182 (protein)
chain: METDKKTGTSRRSFVKAAGTGAIGIATLPLSTATAFAETDNVELAQSKRKVVLAEQGSFYIGGRTVTGPGKFDPSKPVIRASNEGATFYINQMYVNFQAPVRPRGLPLVFWHGGGLTGHIWESTPDGRPGFQTLFVQDRHTVYTIDQPGRGRGNIPTFNGPFGQLEEESIVNTVTANVSKERAWVRDRLGPAPGQFFENSQFPRGYEDNYFKEMGFSPSISSDEIVDAVVKLVTHIGPCVLVTHSASGVLGMRVATHAKNVRGIVAYEPATSIFPKGKVPEIPPLADKKSQIFPPFEIQESYFKKLAKIPIQFVFGDNIPKNPKSAYWFLDWWRVTRYAHSLSLEAINKLGGQASLLDLPTAGLRGNTHFPFTDRNNVQVASLLSDFLGKHGLDQNES
modifications: the amino acid sequence of the herbicide tolerant protein ALT01M3
On to B6, for which the “specific enzyme activity, sulfometuron-methyl” value in series [1] was found to be 1.1 µmol/min/mg. Besides, in series [2], the “efficiency of degrading chlorimuron-ethyl, fold of ALT01” value is on record as 14.2 fold; the “efficiency of degrading metsulfuron-methyl, fold of ALT01” value is on record as 2.1 fold; the “specific enzyme activity, bensulfuron-methyl” value came out at 0.68 µmol/min/mg; the “specific enzyme activity, chlorimuron-ethyl” value came out at 38.4 µmol/min/mg. Besides, in series [2], the “specific enzyme activity, metsulfuron-methyl” value was 4.2 µmol/min/mg; the “specific enzyme activity, thifensulfuron-methyl” value was found to be 17.8 µmol/min/mg; the “specific enzyme activity, tribenuron-methyl” value came to 3.3 µmol/min/mg.

Values taken from patent US12385058B2, “Herbicide tolerance protein, encoding gene thereof and use thereof” (Beijing Dabeinong Biotechnology Co., Ltd., priority 2018, dated 2025).
